Experimental findings from publication PMC1796551, “Breast cancer metastasis suppressor 1 (BRMS1) inhibits osteopontin transcription by abrogating NF-κB activation” are described below.

Common to all, as to conditions: protein: commercial; chain copies: 2; label: biotin; only one strand given
One data set has as its target p50 (Homo sapiens, UniProt P19838 1-433). Briefly: EMSA; 10 mM Tris, 50 mM KCl, 1 mM DTT, 5 mM MgCl2, 1 ug poly(dI-dC), 20 fmol biotinylated probe, 100 ng p65 or 66 ng p50, room temperature 30 min; pH not stated. For orientation: A gel shift assay detects complexes by their altered migration in electrophoresis.
In data set [1] the target is T1, p65 (RelA) (Homo sapiens, UniProt Q04206 1-551). Described as above.
In data set [2] the target is T1, p65 (RelA). Kind of data set: EMSA; supershift with anti-p65 (lane 6); 10 mM Tris, 50 mM KCl, 1 mM DTT, 5 mM MgCl2, 1 ug poly(dI-dC), 20 fmol biotinylated probe, 100 ng p65 or 66 ng p50, room temperature 30 min; pH not stated.

Sequence of p50 (P19838 1-433): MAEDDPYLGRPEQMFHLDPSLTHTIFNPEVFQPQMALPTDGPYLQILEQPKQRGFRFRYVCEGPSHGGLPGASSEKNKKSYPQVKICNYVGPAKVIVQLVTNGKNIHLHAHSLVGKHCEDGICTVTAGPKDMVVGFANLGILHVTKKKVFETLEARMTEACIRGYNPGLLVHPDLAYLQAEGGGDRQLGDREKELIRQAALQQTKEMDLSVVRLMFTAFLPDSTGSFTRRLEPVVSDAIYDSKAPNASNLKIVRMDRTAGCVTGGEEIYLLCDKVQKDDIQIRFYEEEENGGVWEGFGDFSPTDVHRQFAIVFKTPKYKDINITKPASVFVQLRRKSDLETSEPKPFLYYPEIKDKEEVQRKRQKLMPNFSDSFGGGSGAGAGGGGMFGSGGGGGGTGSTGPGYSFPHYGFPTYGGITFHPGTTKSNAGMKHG
T1 sequence (Q04206 whole entry): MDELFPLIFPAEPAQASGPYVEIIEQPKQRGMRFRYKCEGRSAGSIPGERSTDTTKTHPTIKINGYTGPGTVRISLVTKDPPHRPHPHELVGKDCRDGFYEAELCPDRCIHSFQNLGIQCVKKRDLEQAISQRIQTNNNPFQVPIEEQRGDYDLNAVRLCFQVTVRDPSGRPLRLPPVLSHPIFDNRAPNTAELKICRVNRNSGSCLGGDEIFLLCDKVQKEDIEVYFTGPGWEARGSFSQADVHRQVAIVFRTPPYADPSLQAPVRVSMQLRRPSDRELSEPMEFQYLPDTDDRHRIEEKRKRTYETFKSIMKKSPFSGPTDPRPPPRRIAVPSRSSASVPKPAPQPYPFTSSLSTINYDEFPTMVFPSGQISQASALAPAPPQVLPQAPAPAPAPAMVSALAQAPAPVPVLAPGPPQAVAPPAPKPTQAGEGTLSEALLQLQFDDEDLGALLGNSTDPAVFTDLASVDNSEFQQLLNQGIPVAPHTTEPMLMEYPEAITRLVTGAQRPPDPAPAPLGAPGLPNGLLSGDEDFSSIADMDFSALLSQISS

B1: Mut OPN/NF-kB (dsDNA)
DNA 1: GAATTTCATGCGGACTTCGAAATTCTAAG
DNA 2: CTTAGAATTTCGAAGTCCGCATGAAATTC
As to B1, the binding result with p50 and in the data set with p65 (RelA) [1] was “no binding” throughout.

B2: OPN/NF-kB (dsDNA)
DNA 1: GAATTTCATGGGGAAGTCCAAATTCTAAG
DNA 2: CTTAGAATTTGGACTTCCCCATGAAATTC
For B2, the binding result with p65 (RelA) [2] and with p50 was “binds” throughout.
